Our source for the Spec. activity [µU/mg], volume-based activity of the secreted ECE (µunits/ml of cell culture medium) and Spec. activity (µU/mg protein) (µU/mg protein) values is patent publication US6066502.

The target of experiment [1] is human big endothelin-1 (human) (UniProt P05305).
The target is the same in experiment [2]. This is another data set of the same source.
The target is the same in experiment [3]. The source holds these as a separate data set.

Chain of UniProt P05305 (P05305 53-90 limits assumed): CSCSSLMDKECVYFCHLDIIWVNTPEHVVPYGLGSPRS

Take “endothelin converting enzyme (ECE-1) purified from FBHE bovine endothelial cells”: the Spec. activity [µU/mg] in experiment [1] was determined as 15100 µU/mg.

In experiment [2], “secreted human ECE (extracellular domain of human ECE fused to the signal peptide of human t-PA) (enzyme)” yielded a volume-based activity of the secreted ECE (µunits/ml of cell culture medium) of under 10.

B1: recombinant membrane-bound human ECE (complete human ECE expressed from pcDNA3neo in mammalian cells, colony 38) (enzyme)
chain: MSTYKRATLDEEDLVDSLSEGDAYPNGLQVNFHSPRSGQRCWAARTQVEKRLVVLVVLLAAGLVACLAALGIQYQTRSPSVCLSEACVSVTSSILSSMDPTVDPCHDFFSYACGGWIKANPVPDGHSRWGTFSNLWEHNQAIIKHLLENSTASVSEAERKAQVYYRACMNETRIEELRAKPLMELIERLGGWNITGPWAKDNFQDTLQVVTAHYRTSPFFSVYVSADSKNSNSNVIQVDQSGLGLPSRDYYLNKTENEKVLTGYLNYMVQLGKLLGGGDEEAIRPQMQQILDFETALANITIPQEKRRDEELIYHKVTAAELQTLAPAINWLPFLNTIFYPVEINESEPIVVYDKEYLEQISTLINTTDRCLLNNYMIWNLVRKTSSFLDQRFQDADEKFMEVMYGTKKTCLPRWKFCVSDTENNLGFALGPMFVKATFAEDSKSIATEIILEIKKAFEESLSTLKWMDEETRKSAKEKADAIYNMIGYPNFIMDPKELDKVFNDYTAVPDLYFENAMRFFNFSWRVTADQLRKAPNRDQWSMTPPMVNAYYSPTKNEIVFPAGILQAPFYTRSSPKALNFGGIGVVVGHELTHAFDDQGREYDKDGNLRPWWKNSSVEAFKRQTECMVEQYSNYSVNGEPVNGRHTLGENIADNGGLKAAYRAYQNWVKKNGAEHSLPTLGLTNNQLFFLGFAQVWCSVRTPESSHEGLITDPHSPSRFRVIGSLSNSKEFSEHFRCPPGSPMNPPHKCEVW
The molecule B1 returned a Spec. activity (µU/mg protein) (µU/mg protein) in experiment [3] of 12000.
